The text below walks through data of patent US20160271157A1, “BETA-CATENIN” (UCL BUSINESS PLC, priority 2013, published 2016).

In assay [1] the test system is PC3 prostate cancer cell line. The assay can be described thus: Live [Ca2+]i imaging (Fluo4/FuraRed ratio) after addition of Wnt ligand. It is filed as cell-based. To be noted: PC3 cells; for intracellular calcium mobilization ([Ca2+]i release) in response to Wnt ligand: 100 ng/ml Wnt ligand peptide, ratio of Fluo4/Fura Red; for dependence of time constants (dwell time) on Wnt ligand concentration / co-operativity: three concentrations of each Wnt ligand, first-order fit; for rise and fall time of [Ca2+]i release: Wnt peptide 100 ng/ml. The protocol:
The imaging protocol was developed in the inventor's laboratory and has been described in detail, elsewhere (Wang at al., (2010) PLoS ONE 5, e10456). Briefly, 100000-200000 PC3, MCF7, 253J or Cos 7 cells were plated on 35 mm FluoroDish (WPI) and grown for 48 h; calcium indicators Fluo-4 (Invitrogen) and FuraRed (Invitrogen) at 1 ng/ml were added to FluoroDish containing only 1 ml of culture medium and incubated for 15-20 min at 37° C. The culture medium was removed and washed (×2) and replaced with 1 ml PBS. Live cell calcium Imaging was performed on an Olympus FluoView FV 1000 confocal microscope (Olympus KeyMed) equipped with a 20× dry objective (numerical aperture=0.75). Calcium indicators were excited with an argon laser line (488 nm) and emissions recorded in the green channel (500-560 nm) for Fluo-4 and red channel (600-700 nm) for FuraRed after addition of vehicle control (PBS) or Wnt X (30-600 ng/ml). Images were acquired every 1.1 or 2.2 seconds for up to 600-800s; image and data acquisition was performed using FluoView 1000 software (Olympus, UK). Fluorescent intensity was measured and data exported as a tab delimited file for further analysis using a spreadsheet. All imaging experiments were performed in duplicate; intracellular calcium at 100 ng/ml was measured in at least 3-12 different passages (passage numbers 25 to 37) of cell line for each Wnt ligand. Wnt 11 was tested in at least 5 different passages at 3 different concentrations. To test if the Wnt activated calcium release was from [Ca^2+]i stores, in some cases PC3 cells, loaded with calcium dyes, were incubated with 1-5 μM of thapsigargin (Sigma, UK), resuspended in dimethyl sulfoxide (DMSO), for 20 min at 37° C., prior to addition of Wnt ligand and live calcium imaging (as described above).
The experiments were performed using 35 mm, glass bottom, FluoroDish containing 1 ml PBS, at 37° C., to which ligands were added at desired concentration. In a static, non-superfusing assay system there is a lag time before the start of a response, in this case an increase in the intensity of the Fluo4 signal due to the release of free calcium. To measure the diffusion constant under these conditions we used Pontamine Sky Blue (Sigma Aldridge), which fluoresces in the red spectrum with 488 nm excitation, using standard practice for adding ligands; the diffusion constant was measured to be 23.3±2.1 μm·s^−1 (means±S.E.M, n=8). The calcium wave, in response to Wnt ligands, travelled across the FluoroDish.
After image acquisition, regions of interest (ROI) were drawn over individual PC3 cells (up to 25) in a single frame and calcium intensity measurements were made using FluoView 1000 software (Olympus, UK). The measurements were exported as a tab delimited file into a spreadsheet for further analysis and Fluo4/Fura Red ratios were calculated. The waveform, a product of the ratio of Fluo4 and FuraRed over the period of measurement was used to measure the kinetics of the activation of [Ca^2+]i release in PC3 cells, in response to different Wnt ligands. The time constants (rise, dwell and fall times) were calculated by first fitting the Fluo4/FuraRed ratio to a single Gaussian function (Origin Lab Corp., MA); a lower (10%) and upper (90%) amplitude thresholding method was then used to calculate the time constants (s). Statistical significance was calculated using Mann Whitney U test.

In assay [2] the test system is β-catenin translocation to the nucleus. The assay can be described thus: β-catenin immunocytochemistry, MCF7. To be noted: MCF7 breast cancer cell line. It is filed as cell-based, human. The protocol:
(§1) Immunostaining was performed in two different laboratories, independently with the experimenter blind to the identity of the treatment. Either cells used in FluoroDish, post [Ca^2+]i experiments using dyes (see above) or grown in 8 well chamber glass slides (Lab Tek II, Nunc) were used. For Wnt ligand treatment, the culture medium replaced with PBS (without calcium) at 37° C. The experiments were replicated for Wnt ligand or vehicle control as described for [Ca^2+]i measurements. Briefly, Wnt ligands were added and chamber slides incubated at 37° C. for up to 20 min. Chamber wells were washed 3× with 0.5 ml PBS and cells were fixed with 0.5 ml 4% formalin for 30 min at 4° C. Cells were washed 3× with ice cold PBS and stored in 0.5 ml PBS at 4° C. for immunostaining. In some experiments PC3 cells were treated with thaspsigargin as described above.
For immunostaining cells were washed twice for 5 minutes in TBST (20 mM Tris pH 7.4, 0.9% NaCl, 0.1% Tween 20, Sigma). Cells were then incubated in 20% normal goat serum (NGS)/TBST for 30 min at room temperature, the chambers were drained and cells were incubated with mouse anti-β-catenin (ab22656, Abcam, UK) at 1:500 dilution in NGS/TBST overnight at 4° C. […]
Fluorescence immunocytochemical staining for β-catenin expression in cell lines was imaged using Olympus Fluoview 1000 Confocal Microscope (Olympus KeyMed) mounted on an Olympus IX81 inverted microscope using a 20×0.7 NA or 40×1.0 NA dry objective with a zoom of ×3.4′,6-diamidino-2-phenylindole (DAPI, nuclear counterstain) was excited at 405 nm with an emission of 415-500 nm; Cy3 (β-catenin label) signal was excited at 561 nm with an emission spectrum between 570-670 nm. […]
Nuclear co-localization of β-catenin was calculated by importing FV files for untreated, control or treated cells, into colocalization plugin of Fiji software (http://fiji.sc/Fiji) for Cy3 (β-catenin) and DAPI (nuclear) signals. […] Statistical significance between untreated and treated cells was calculated using Mann Whitney U test.

The test system is the same in assay [3]. Briefly: β-catenin immunocytochemistry and nuclear co-localization analysis, PC3. To be noted: for Pearson coefficient of nuclear co-localization of β-catenin / expression of β-catenin (immunofluorescence), visible in the nucleus: PC3 cells; for Pearson coefficient of nuclear co-localization of β-catenin: Wnt 100 ng/ml vs control, p<0.001 Mann Whitney test; for expression of β-catenin (immunofluorescence), visible in the nucleus: Wnt ligand 100 ng/ml vs vehicle. It is filed as cell-based. The protocol:
as §1
For immunostaining cells were washed twice for 5 minutes in TBST (20 mM Tris pH 7.4, 0.9% NaCl, 0.1% Tween 20, Sigma). Cells were then incubated in 20% normal goat serum (NGS)/TBST for 30 min at room temperature, the chambers were drained and cells were incubated with mouse anti-β-catenin (ab22656, Abcam, UK) at 1:500 dilution in NGS/TBST overnight at 4° C. Following two further 5 min washes in TBST sections were incubated in goat anti-mouse peroxidase fab (Abcam, UK) at 1:500 dilution for 30 min at room temperature. Following a further two 5 min washes in TBST cells were incubated with tyramide Cy3 (Perkin Elmer) for 10 min at room temperature. Sections were washed twice for 5 min in TBST before nuclear counterstaining with DAPI. After a final two 5 min washes, the chambers were removed and cover slip placed on slides using Permafluor (Thermo Shandon).
Fluorescence immunocytochemical staining for β-catenin expression in cell lines was imaged using Olympus Fluoview 1000 Confocal Microscope (Olympus KeyMed) mounted on an Olympus IX81 inverted microscope using a 20×0.7 NA or 40×1.0 NA dry objective with a zoom of ×3.4′,6-diamidino-2-phenylindole (DAPI, nuclear counterstain) was excited at 405 nm with an emission of 415-500 nm; Cy3 (β-catenin label) signal was excited at 561 nm with an emission spectrum between 570-670 nm. […] Z-stacks of at least 3 fields per sample were imaged and saved in Olympus FV (OIF or OIB) file format.
Nuclear co-localization of β-catenin was calculated by importing FV files for untreated, control or treated cells, into colocalization plugin of Fiji software (http://fiji.sc/Fiji) for Cy3 (β-catenin) and DAPI (nuclear) signals. Pearson co-relation of colocalization were tabulated for 25-90 cells (from 2-5 different passages of cells) using ROI analysis. Statistical significance between untreated and treated cells was calculated using Mann Whitney U test.

For “Wnt10B: Recombinant Wnt peptide purchased from R&D systems”, in assay [1], the “intracellular calcium mobilization ([Ca2+]i release) in response to Wnt ligand” value (“intracellular calcium mobilization” below) is reported as “induce intracellular calcium mobilization” and the “dependence of time constants (dwell time) on Wnt ligand concentration / co-operativity” value is given as “negative co-operativity”. Further, the “β-catenin translocation into the nucleus after Wnt treatment” value in assay [2] is recorded as “β-catenin translocation into the nucleus”. For the same molecule, in assay [3], the “Pearson coefficient of nuclear co-localization of β-catenin” value (from here on “Pearson coefficient”) is reported as “significant increase” and the “expression of β-catenin (immunofluorescence), visible in the nucleus” value (“expression of β-catenin” below) is “visibly increased”.
Turning to `C/C=C(/C)C(=O)O[C@H]1C(C)=C2[C@H]([C@@H]1OC(=O)CCCCCCC)[C@@](C)(OC(C)=O)C[C@H](OC(=O)CCC)[C@@]1(O)[C@H]2OC(=O)[C@@]1(C)O` [thapsigargin, reference compound], in assay [1] (thapsigargin 5 μM final concentration), the “time for thapsigargin-evoked calcium transient to decline to baseline” value is not above 120 s. Also, in assay [3] (PC3 cells incubated with thapsigargin), the “translocation of β-catenin into the nucleus after inhibition of Wnt induced [Ca2+]i release” value is on record as “reduced the translocation of β-catenin into the nucleus”.

B1: Wnt5A: Recombinant Wnt peptide purchased from R&D systems (protein, UniProt P41221 62-380, looked up)
Protein Wnt-5a: IIGAQPLCSQLAGLSQGQKKLCHLYQDHMQYIGEGAKTGIKECQYQFRHRRWNCSTVDNTSVFGRVMQIGSRETAFTYAVSAAGVVNAMSRACREGELSTCGCSRAARPKDLPRDWLWGGCGDNIDYGYRFAKEFVDARERERIHAKGSYESARILMNLHNNEAGRRTVYNLADVACKCHGVSGSCSLKTCWLQLADFRKVGDALKEKYDSAAAMRLNSRGKLVQVNSRFNSPTTQDLVYIDPSPDYCVRNESTGSLGTQGRLCNKTSEGMDGCELMCCGRGYDQFKTVQTERCHCKFHWCCYVKCKKCTEIVDQFVCK
Regarding B1, in assay [1], the “intracellular calcium mobilization” value is “induce intracellular calcium mobilization”; the “rise and fall time of [Ca2+]i release” value is recorded as “shortest”; the “dependence of time constants (dwell time) on Wnt ligand concentration / co-operativity” value is “classical Michaelis-Menten kinetics”. In addition, in assay [1] (estimated from fit of dwell time vs Wnt concentration), the “K1/2 (half-maximal concentration), Michaelis-Menten kinetics of dwell time of [Ca2+]i release” value is 67 ng/mL. Also, in assay [2], the “β-catenin translocation into the nucleus after Wnt treatment” value is “β-catenin translocation into the nucleus”. In assay [3], the “Pearson coefficient” value was “significant increase” and the “expression of β-catenin” value was “visibly increased”.

B2: Wnt9B: Recombinant Wnt peptide purchased from R&D systems (protein, UniProt O14905 23-357, looked up)
Protein Wnt-9b: SYFGLTGREVLTPFPGLGTAAAPAQGGAHLKQCDLLKLSRRQKQLCRREPGLAETLRDAAHLGLLECQFQFRHERWNCSLEGRMGLLKRGFKETAFLYAVSSAALTHTLARACSAGRMERCTCDDSPGLESRQAWQWGVCGDNLKYSTKFLSNFLGSKRGNKDLRARADAHNTHVGIKAVKSGLRTTCKCHGVSGSCAVRTCWKQLSPFRETGQVLKLRYDSAVKVSSATNEALGRLELWAPARQGSLTKGLAPRSGDLVYMEDSPSFCRPSKYSPGTAGRVCSREASCSSLCCGRGYDTQSRLVAFSCHCQVQWCCYVECQQCVQEELVYTCKH
B2: in assay [1], the “intracellular calcium mobilization” value was “induce intracellular calcium mobilization”; the “rise and fall time of [Ca2+]i release” value is recorded as “slowest”; the “dependence of time constants (dwell time) on Wnt ligand concentration / co-operativity” value is given as “negative co-operativity”. Moreover, the “β-catenin translocation into the nucleus after Wnt treatment” value in assay [2] is on record as “β-catenin translocation into the nucleus”. In addition, in assay [3], the “Pearson coefficient” value was “significant increase” and the “expression of β-catenin” value is on record as “visibly increased”.
